Laboratory results reported in publication PMC10844748.

Target: S. cerevisiae translation elongation factor 1A (eEF1A), TEF1-encoded, purified from a ΔEFM4 strain (S. cerevisiae) (UniProt P02994)
Chain of UniProt P02994 (P02994 whole entry, stated change not applied): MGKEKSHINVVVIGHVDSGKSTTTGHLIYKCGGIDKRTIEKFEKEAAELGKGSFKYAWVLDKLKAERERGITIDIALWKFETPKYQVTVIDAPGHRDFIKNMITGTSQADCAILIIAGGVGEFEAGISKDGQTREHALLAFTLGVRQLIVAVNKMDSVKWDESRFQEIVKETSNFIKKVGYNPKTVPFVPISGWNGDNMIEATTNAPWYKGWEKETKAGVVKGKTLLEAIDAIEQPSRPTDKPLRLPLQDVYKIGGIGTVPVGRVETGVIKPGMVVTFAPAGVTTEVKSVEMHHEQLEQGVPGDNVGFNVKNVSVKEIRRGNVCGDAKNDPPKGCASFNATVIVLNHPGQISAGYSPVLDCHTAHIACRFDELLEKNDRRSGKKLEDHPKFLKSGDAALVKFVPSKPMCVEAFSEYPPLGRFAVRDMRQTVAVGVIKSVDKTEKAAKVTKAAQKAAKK

- in vitro methylation of eEF1A K316 (Efm4 3 μM, eEF1A 2 μM, AdoMet, 30 min, 30 °C; LC-MS/MS): < 20%
B1: Efm4 F210A/F212A double mutant (enzyme)
chain: FRRNPQDTGDCWFSDSDAEQKMIDFLVDNIGAYRISENASVVDLGTGNGHMLFELHQTEFQGKLVGIDYSEESVKLASNIAEATGVDNFISFQQADIFSGDWKPGKYDIVLDKGTLDAISLSGMKINGKLDVVDVYAGVVERILKKDGIFLITSCNFTQDELVKIIETDNLKMWKTIKYPVAQAGGVQGATICSVAFVKQN
